The numbers were not newly measured in article PMC7556843, which cites them from elsewhere.

Data set [1] concerns the target linear tetraubiquitin (Ub4) (Homo sapiens) (UniProt P0CG47).
Data set [2] addresses linear diubiquitin (Ub2) (Homo sapiens) (UniProt P0CG47).

NEMO 242-419, sequence (Q9Y6K9 242-419): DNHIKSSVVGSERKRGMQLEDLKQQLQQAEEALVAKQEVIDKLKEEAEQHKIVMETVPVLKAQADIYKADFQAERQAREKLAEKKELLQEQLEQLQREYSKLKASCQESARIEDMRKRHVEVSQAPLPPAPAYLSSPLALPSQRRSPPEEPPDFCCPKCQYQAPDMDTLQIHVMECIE

What is called Kd is a measure of binding affinity in units of concentration. On to NEMO 242-419 (from UniProt Q9Y6K9), for which the dissociation constant (Kd) in data set [1] was 300 nM; in data set [2], 3000 nM.
